Measured values reported in the RNAGym collection of RNA variant scans (doi:10.1073/pnas.2313332121).

B1: TPR t1 (parent)
chain: GACCAAUCUGCCCUCAGAGCUCGAGAACAUCUUCGGAUGCAGAGGAGGCAGGCUUCGGUGGCGCGAUAGCGCCAACGUCCUCAACCUCCAAUGCAUCCCACCACAUGAUGAUGCCUGAAGAGCCUUGGUUUUUUG

Variants of: B1
Experiment: polymerase ribozyme fitness, log enrichment relative to wild type (log ratio); higher = more active; in vitro selection for triplet polymerase activity
Outline: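 A single round of triplicate in vitro selection, including frozen incubation at −7 °C, was applied to PCR-built, transcribed mutant libraries of each subunit of a heterodimeric triplet polymerase ribozyme. Illumina sequencing of input and output libraries retained genotypes with ≥10 input reads and ≥1 read per output. Fitness is the base-2 logarithm of genotype enrichment divided by wild-type enrichment, from inverse-variance-weighted replicate averages.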

Compared with C13U C15U C20U U81A A90C C115U, G51U A74G is higher in “polymerase ribozyme fitness (log ratio)” value: -4.72 for the first, -2.72 for the second.

First: C70U C85A C94U U112C
Second: C11U G93C G122A
The “polymerase ribozyme fitness (log ratio)” value of the first is lower: -0.466 for the first, -0.0927 for the second.

First: G36C C98U U129A
Second: A2C G36C C62U
The “polymerase ribozyme fitness (log ratio)” value of the first is lower: -3.81 for the first, -2.66 for the second.

First: C8G C62U U106A G113U
Second: C64U U131A
The “polymerase ribozyme fitness (log ratio)” value of the first is lower: -1.94 for the first, 0.0289 for the second.

Compared with U7C C11G A27U G35U G45A U59C A84G C101U A121U, G10U C62A G71U G127C is higher in “polymerase ribozyme fitness (log ratio)” value: -8.13 for the first, -0.898 for the second.

Going from A2C U7G A43C G63C C115U to G48U U106A G128C, the “polymerase ribozyme fitness (log ratio)” value rises from -4.87 to -3.74.

First: C70A A83U
Second: C40A C70U
The “polymerase ribozyme fitness (log ratio)” value of the first is lower: -2.44 for the first, -0.716 for the second.

Compared with U9C G36U G63A, C20U G35C G60U is lower in “polymerase ribozyme fitness (log ratio)” value: -1.4 for the first, -5.9 for the second.

First: C12A C80A G120U
Second: G42U G71C A111C U130C
The “polymerase ribozyme fitness (log ratio)” value of the first is higher: -0.968 for the first, -3.75 for the second.

First: U7C G47A G48A G69U U78C
Second: A6U C12U G23C G63U G120U
The “polymerase ribozyme fitness (log ratio)” value of the first is higher: -0.567 for the first, -7.69 for the second.

Compared with G19U G51A G60C G120A, C4G C73U U92C is higher in “polymerase ribozyme fitness (log ratio)” value: -6.42 for the first, -2.66 for the second.

First: U33G C49G C53G G61U
Second: C53A G60A C72A A91U U92G C97A C124A
The “polymerase ribozyme fitness (log ratio)” value of the first is lower: -7.57 for the first, -7.15 for the second.

First: C40A G110A U116A
Second: G71C C94A G113C
The “polymerase ribozyme fitness (log ratio)” value of the first is lower: -5.12 for the first, -4.44 for the second.

First: U32A C49G C123U
Second: C15U G60A G128A
The “polymerase ribozyme fitness (log ratio)” value of the first is lower: -4.37 for the first, -2.6 for the second.

Compared with C70G G113A, C53G U112C is higher in “polymerase ribozyme fitness (log ratio)” value: -3.02 for the first, 0.934 for the second.

Going from G71C G113A A121G U133A to A100U G110A, the “polymerase ribozyme fitness (log ratio)” value falls from -1.06 to -1.52.

Compared with C49G G110A A121C, A41U A46U C89G A121C is lower in “polymerase ribozyme fitness (log ratio)” value: -1.76 for the first, -7.24 for the second.

Compared with A5U C13U G47A G63U A91U U109C G127C, C72A A111U is higher in “polymerase ribozyme fitness (log ratio)” value: -6.28 for the first, -2.42 for the second.

Compared with A41C G61A G127A, C79U U92G C115G is lower in “polymerase ribozyme fitness (log ratio)” value: -1.68 for the first, -3.67 for the second.

First: A43G A74G C89U U109G
Second: G47U C62U G71U C82A A95U
The “polymerase ribozyme fitness (log ratio)” value of the first is lower: -7.22 for the first, -3.36 for the second.

Going from C22A C82G U112G to C70A A74U, the “polymerase ribozyme fitness (log ratio)” value rises from -5.26 to -3.39.

Going from U30C C70U G113C to C56U G69U U112G A119U, the “polymerase ribozyme fitness (log ratio)” value rises from -3.79 to -3.07.

First: A18U C70U
Second: A5G A26C C72U U87A G120U U130A
The “polymerase ribozyme fitness (log ratio)” value of the first is higher: -3.33 for the first, -3.99 for the second.

First: C3U C56U G77C
Second: C72G A100U G113U C124U
The “polymerase ribozyme fitness (log ratio)” value of the first is higher: -1.42 for the first, -4.64 for the second.

First: U14A C22A G61C G65A C101U G120C
Second: A18G U106A U109C
The “polymerase ribozyme fitness (log ratio)” value of the first is lower: -7.89 for the first, -3.8 for the second.

First: A2G C73U G113A C114G A119U U126G
Second: U14G G69U C85A
The “polymerase ribozyme fitness (log ratio)” value of the first is lower: -5.02 for the first, -2.32 for the second.

Going from C12G C56G to A105G U109A, the “polymerase ribozyme fitness (log ratio)” value falls from -1.05 to -5.94.

Compared with C40A U87A C88U G135C, A6C C13A G48C C49G C85A U92C is lower in “polymerase ribozyme fitness (log ratio)” value: -2.71 for the first, -4.52 for the second.

First: G110A C114A
Second: C11U G61A A105G U106A
The “polymerase ribozyme fitness (log ratio)” value of the first is lower: -6.15 for the first, -0.0724 for the second.

First: C8U A27G G42U C56A A74C C89U A111C
Second: C3G C88U U106C
The “polymerase ribozyme fitness (log ratio)” value of the first is lower: -5.47 for the first, -2.72 for the second.

First: G61A A83C G110U G117U
Second: A2C G120U
The “polymerase ribozyme fitness (log ratio)” value of the first is lower: -5.13 for the first, -0.948 for the second.

First: G120A U129A
Second: G10A G58C C123A
The “polymerase ribozyme fitness (log ratio)” value of the first is lower: -0.0881 for the first, 1.18 for the second.

First: C11G U33C C73U C99U A111C
Second: G17C U116G C124A
The “polymerase ribozyme fitness (log ratio)” value of the first is lower: -6.85 for the first, -2.05 for the second.

Going from G52A C53A to G57A G93U, the “polymerase ribozyme fitness (log ratio)” value falls from -0.436 to -1.69.

Compared with U38G C104A, A37C C56U is higher in “polymerase ribozyme fitness (log ratio)” value: -1.93 for the first, 0.093 for the second.

Compared with C4U U38A G45U C49G G71A, U55C U92G is higher in “polymerase ribozyme fitness (log ratio)” value: -4.53 for the first, -2.25 for the second.

First: U7C C13G
Second: G117C U130A
The “polymerase ribozyme fitness (log ratio)” value of the first is higher: 0.00167 for the first, -5.1 for the second.

First: A5U C64G C124U
Second: C28U G52U C101U
The “polymerase ribozyme fitness (log ratio)” value of the first is lower: -6.6 for the first, -4.04 for the second.

First: C49G G57U A83U G110A A121G
Second: C15U U78A C86G
The “polymerase ribozyme fitness (log ratio)” value of the first is higher: -1.99 for the first, -3.29 for the second.

First: C12G U78C A111U
Second: A26G C72U
The “polymerase ribozyme fitness (log ratio)” value of the first is lower: -3.23 for the first, -2.13 for the second.

Compared with A18G C31A C62U U112A C115U G122U, A16U C123A U125A is higher in “polymerase ribozyme fitness (log ratio)” value: -5.9 for the first, -0.935 for the second.

With A2U A6C C76A C115U U126A U129C U130A U133A the “polymerase ribozyme fitness (log ratio)” value was -4.89.
